Experimental data taken from the supplement of paper PMC9112550, “Optimization of the antimicrobial peptide Bac7 by deep mutational scanning” (BMC Biology, 2022).

What follows are sequences tested on Escherichia coli TOP10 (assay: shrunken log2 fold change of peptide-encoding DNA abundance (4.5 h post-induction vs induction); higher = less antimicrobial activity (less host growth inhibition)). Conditions: time post-induction: 4.5 h; library: site-saturation at positions 5, 18, 19, 20.
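Further: peptides expressed intracellularly from a pBAD plasmid library in pooled LB shake-flask culture, induced with 0.3% L-arabinose, DNA abundance read by NGS, three biological replicates, DESeq2 with apeglm shrinkage.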

Row | Sequence | shrunken log2 fold change
1 | RRIRERPPRLPRPRPRPGVKPRP | -0.0766
2 | RRIRERPPRLPRPRPRPGVRPRP | 0.125
3 | RRIRERPPRLPRPRPRPGYAPRP | -0.102
4 | RRIRERPPRLPRPRPRPHASPRP | -0.346
5 | RRIRERPPRLPRPRPRPHCIPRP | -0.000243
6 | RRIRERPPRLPRPRPRPHCQPRP | 0.00361
7 | RRIRERPPRLPRPRPRPHDPPRP | -0.0577
8 | RRIRERPPRLPRPRPRPHDWPRP | -0.0393
9 | RRIRERPPRLPRPRPRPHEWPRP | -0.155
10 | RRIRERPPRLPRPRPRPHFAPRP | -0.0634
11 | RRIRERPPRLPRPRPRPHGNPRP | -0.0832
12 | RRIRERPPRLPRPRPRPHGWPRP | 0.136
13 | RRIRERPPRLPRPRPRPHITPRP | -0.99
14 | RRIRERPPRLPRPRPRPHLKPRP | -0.268
15 | RRIRERPPRLPRPRPRPHLLPRP | 0.0196
16 | RRIRERPPRLPRPRPRPHMYPRP | -0.577
17 | RRIRERPPRLPRPRPRPHPGPRP | 0.033
18 | RRIRERPPRLPRPRPRPHPPPRP | 0.16
19 | RRIRERPPRLPRPRPRPHQTPRP | -0.0225
20 | RRIRERPPRLPRPRPRPHVRPRP | -0.105
21 | RRIRERPPRLPRPRPRPHWSPRP | -0.71
22 | RRIRERPPRLPRPRPRPHYRPRP | 0.05
23 | RRIRERPPRLPRPRPRPIASPRP | 0.129
24 | RRIRERPPRLPRPRPRPICRPRP | 0.0559
25 | RRIRERPPRLPRPRPRPIDQPRP | 0.00338

Row | Sequence | shrunken log2 fold change
26 | RRIRERPPRLPRPRPRPIEDPRP | -0.199
27 | RRIRERPPRLPRPRPRPIELPRP | -0.163
28 | RRIRERPPRLPRPRPRPIFNPRP | -0.663
29 | RRIRERPPRLPRPRPRPIGRPRP | 0.0419
30 | RRIRERPPRLPRPRPRPIHQPRP | -1.22
31 | RRIRERPPRLPRPRPRPIICPRP | -0.0147
32 | RRIRERPPRLPRPRPRPILAPRP | -0.349
33 | RRIRERPPRLPRPRPRPILCPRP | -0.0244
34 | RRIRERPPRLPRPRPRPIMKPRP | -0.376
35 | RRIRERPPRLPRPRPRPIMVPRP | -0.023
36 | RRIRERPPRLPRPRPRPINDPRP | -0.223
37 | RRIRERPPRLPRPRPRPINSPRP | -0.157
38 | RRIRERPPRLPRPRPRPINTPRP | -0.351
39 | RRIRERPPRLPRPRPRPIPAPRP | -0.0833
40 | RRIRERPPRLPRPRPRPIPTPRP | 0.0239
41 | RRIRERPPRLPRPRPRPIQKPRP | -0.184
42 | RRIRERPPRLPRPRPRPIRAPRP | 0.0262
43 | RRIRERPPRLPRPRPRPIWRPRP | 0.0579
44 | RRIRERPPRLPRPRPRPIYEPRP | -0.236
45 | RRIRERPPRLPRPRPRPKGFPRP | 0.0527
46 | RRIRERPPRLPRPRPRPKGNPRP | 0.139
47 | RRIRERPPRLPRPRPRPKHAPRP | -0.0907
48 | RRIRERPPRLPRPRPRPKICPRP | 0.0135
49 | RRIRERPPRLPRPRPRPKKLPRP | -0.083
50 | RRIRERPPRLPRPRPRPKLVPRP | 0.0398

Row | Sequence | shrunken log2 fold change
51 | RRIRERPPRLPRPRPRPKMDPRP | -0.0491
52 | RRIRERPPRLPRPRPRPKNQPRP | -0.281
53 | RRIRERPPRLPRPRPRPKPLPRP | 0.104
54 | RRIRERPPRLPRPRPRPKPQPRP | 0.309
55 | RRIRERPPRLPRPRPRPKQCPRP | -0.354
56 | RRIRERPPRLPRPRPRPKRCPRP | -0.0369
57 | RRIRERPPRLPRPRPRPKRLPRP | 0.0323
58 | RRIRERPPRLPRPRPRPKRYPRP | -0.051
59 | RRIRERPPRLPRPRPRPKSCPRP | -0.00876
60 | RRIRERPPRLPRPRPRPKSGPRP | -0.136
61 | RRIRERPPRLPRPRPRPKSIPRP | -0.323
62 | RRIRERPPRLPRPRPRPKSKPRP | -0.19
63 | RRIRERPPRLPRPRPRPKTEPRP | -0.0578
64 | RRIRERPPRLPRPRPRPKVHPRP | -0.196
65 | RRIRERPPRLPRPRPRPKWAPRP | 0.0574
66 | RRIRERPPRLPRPRPRPKWCPRP | -0.0117
67 | RRIRERPPRLPRPRPRPKWDPRP | 0.953
68 | RRIRERPPRLPRPRPRPKWHPRP | -0.136
69 | RRIRERPPRLPRPRPRPKWKPRP | -0.0193
70 | RRIRERPPRLPRPRPRPKWTPRP | 0.0657
71 | RRIRERPPRLPRPRPRPKYDPRP | -0.0434
72 | RRIRERPPRLPRPRPRPLAGPRP | -0.113
73 | RRIRERPPRLPRPRPRPLCQPRP | 0.00385
74 | RRIRERPPRLPRPRPRPLDIPRP | -0.0284
75 | RRIRERPPRLPRPRPRPLECPRP | -0.498
